Article PMC3326523 (Cell, 2012)
Where no end group is shown, it is not given here.

T1: EP300 bromodomain (human, UniProt Q09472 1040-1161)
T1 construct: the crystallised construct may differ; also called KAT3B; source: E. coli BL21(DE3), purified (Ni-NTA, TEV, SEC)
T1 sequence: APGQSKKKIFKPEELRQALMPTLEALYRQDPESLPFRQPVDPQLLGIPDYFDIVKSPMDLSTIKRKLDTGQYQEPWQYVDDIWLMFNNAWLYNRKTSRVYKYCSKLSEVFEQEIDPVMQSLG

B1: BRD3(2), second bromodomain of BRD3 (domain or fragment, human)
chain: GKLSEHLRYCDSILREMLSKKHAAYAWPFYKPVDAEALELHDYHDIIKHPMDLSTVKRKMDGREYPDAQGFAADVRLMFSNCYKYNPPDHEVVAMARKLQDVFEMRFAKMP
notes: BRD3, human, second bromodomain; the crystallised construct may differ; source: E. coli BL21(DE3), purified (Ni-NTA, TEV, SEC)
B2: CECR2 bromodomain (domain or fragment)
chain: not shown
notes: CECR2, human, bromodomain; the crystallised construct may differ; source: E. coli BL21(DE3), purified (Ni-NTA, TEV, SEC)
B3: H2BK85 peptide AHYNKacRSTITSRE (peptide)
peptide: AHYNK(Ac)RSTITSRE
notes: histone H2B, human; source: synthetic peptide
B4: CREBBP bromodomain (domain or fragment, human)
chain: RKKIFKPEELRQALMPTLEALYRQDPESLPFRQPVDPQLLGIPDYFDIVKNPMDLSTIKRKLDTGQYQEPWQYVDDVWLMFNNAWLYNRKTSRVYKFCSKLAEVFEQEIDPVMQSLG
notes: the crystallised construct may differ; also called CBP; KAT3A; source: E. coli BL21(DE3), purified (Ni-NTA, TEV, SEC)
B5: H3K36 peptide ATGGVKacKPHRY (peptide)
peptide: ATGGVK(Ac)KPHRY
notes: histone H3, human; the last Y is Y41 of H3; source: synthetic peptide
B6: H3K56 peptide GTVALREIRRYQKacS (peptide)
peptide: GTVALREIRRYQK(Ac)S
notes: histone H3, human; source: synthetic peptide
B7: H3K56 peptide IRRYQKacSTELLY (peptide)
peptide: IRRYQK(Ac)STELLY
notes: as for B6
B8: H4K44 peptide GGVKacRISGLI (peptide)
peptide: GGVK(Ac)RISGLI
notes: histone H4, human; source: synthetic peptide
B9: H4K44 peptide RRGGVKacRISGLY (peptide)
peptide: RRGGVK(Ac)RISGLY
notes: as for B8
B10: H4K5 peptide SGRGKacGGKGLY (peptide)
peptide: SGRGK(Ac)GGKGLY
notes: as for B8
B11: poly-R peptide RRRRRKacRRRRRY (peptide)
chain: RRRRRK(Ac)RRRRRY
B12: KIAA1240 bromodomain (domain or fragment, human)
chain: MEDQEENTLRELRLFLRDVTKRLATDKRFNIFSKPVDIEEVSDYLEVIKEPMDLSTVITKIDKHNYLTAKDFLKDIDLICSNALEYNPDKDPGDKIIRHRACTLKDTAHAIIAAELDPEFNKLCEEIKEARIKRG
notes: KIAA1240 protein, human, bromodomain; the crystallised construct may differ; also called ATAD2B; source: E. coli BL21(DE3), purified (Ni-NTA, TEV, SEC)
B13: PCAF bromodomain (domain or fragment, human)
chain: GKEKSKEPRDPDQLYSTLKSILQQVKSHQSAWPFMEPVKRTEAPGYYEVIRFPMDLKTMSERLKNRYYVSKKLFMADLQRVFTNCKEYNPPESEYYKCANILEKFFFSKIKEAGLID
notes: P300/CBP-associated factor, human, bromodomain; the crystallised construct may differ; also called KAT2B; source: E. coli BL21(DE3), purified (Ni-NTA, TEV, SEC)
B14: H3K18 peptide GKAPRKacQLATKY (peptide)
peptide: GKAPRK(Ac)QLATKY
notes: as for B6

Tests used:
Settings in all cases: both partners purified
[1] = target: T2, H4K12/16/20 peptide GKacGGAKacRHRKacV (human, acetyl-lysine at K12, K16 and K20 (residues 2, 6 and 10 of the peptide)); assay: ITC; as a1; rows with N of about 0.5 or 0.25: two or more bromodomains on one peptide, apparent binding constants, events not deconvoluted
T2 construct: histone H4, human; source: synthetic peptide

[2] = target: T3, H3K9 peptide KQTARKacSTGGKY (human, acetyl-lysine at K9 (residue 6 of the peptide)); assay: ITC; peptide (mM stock) titrated into bromodomain (about 50 μM), by the concentrations in the tables; 10 or 15°C, 50 mM HEPES pH 7.5, 150 mM NaCl; single binding site model
T3 construct: histone H3, human; source: synthetic peptide

[3] = target: T4, H3K14 peptide KSTGGKacAPRKQY (human, acetyl-lysine at K14 (residue 6 of the peptide)); assay: as above
T4 construct: histone H3, human; source: synthetic peptide

[4] = target: B4; assay: as above
[5] = target: T1, EP300 bromodomain; assay: as above
[6] = target: FALZ bromodomain (human, UniProt Q12830 2914-3037); assay: as above
[7] = target: FALZ bromodomain (human, UniProt Q12830 2914-3037); assay: as above; remark: listed apart in the source
[8] = target: T5, H4K8 peptide RGKGGKacGLGKGY (human, acetyl-lysine at K8 (residue 6 of the peptide)); assay: as above
T5 construct: histone H4, human; source: synthetic peptide

[9] = target: T4, H3K14 peptide KSTGGKacAPRKQY; assay: as above; remark: listed apart in the source
[10] = target: B1; assay: as above

B1 showed a Kd [1] of 61.3 ± 1.9 µM.

With B2 the Kd [2] was 189 ± 11.6 µM and the Kd [3] was 43.9 ± 0.8 µM.

B3 was tested, and the Kd [4] was 66.2 ± 3.8 µM and the “stoichiometry N” value [4] was 0.98 ± 0.059.

Binder B4 has a Kd [3] of 734 ± 90.6 µM.

For B5, the Kd [4] was 71.4 ± 1 µM, the “stoichiometry N” value [4] was 1 and the “stoichiometry N” value [5] was 1 ± 0.044.

With B6 the Kd [4] was 21.3 ± 1.4 µM, the “stoichiometry N” value [4] was 0.96 ± 0.025 and the Kd [5] was 13.4 ± 0.5 µM. The “stoichiometry N” value [5] was 0.98 ± 0.009.

B7 was tested, and the Kd [4] was 13.8 ± 0.4 µM and the “stoichiometry N” value [4] was 0.97 ± 0.013.

B8 was tested, and the Kd [4] was 82 ± 3.8 µM, the “stoichiometry N” value [4] was 1.06 ± 0.01 and the Kd [5] was 132 ± 6.3 µM. The “stoichiometry N” value [5] was 0.97 ± 0.088.

For B9, the Kd [4] was 25.3 ± 0.6 µM and the “stoichiometry N” value [4] was 1 ± 0.099.

In the case of B10, the Kd [6] is reported as 175 ± 13.3 µM and the “stoichiometry N” value [6] is reported as 1 ± 0.17.

B11 was tested, and the Kd [7] was 3.1 ± 0.1 µM and the “stoichiometry N” value [7] was 1.

With B12 the Kd [8] was 150 ± 6.4 µM.

For B13, the Kd [9] was 188 ± 14.6 µM.

In the case of B14, the Kd [10] is reported as 67.1 ± 4.5 µM and the “stoichiometry N” value [10] is reported as 1.06 ± 0.068.
